Tested on: normocythaemic mouse
Assay: EPO-bioassay in the normocythaemic mouse system (European Pharmacopeia)
Type: in vivo
Protocol: Quantitative determination of EPO protein was performed by measuring UV absorption at 280 nm according to the Eur. Phar. (European Pharmacopeia 4, Monography January 2002: 1316: erythropoietin concentrated solution) in a cuvette with 1 cm path length. In addition, EPO was quantitated by applying a RP-HPLC method using a RP-C4 column (Vydac Protein C4, Cat.# 214TP5410, Grace Vydac, Calif., US); the HPLC method was calibrated using the erythropoietin BRP 1 reference standard (European Pharmacopeia, Conseil de l'Europe B.P. 907-F67029, Strasbourg Cedex 1).
The EPO-bioassay in the normocythaemic mouse system indicates was performed according to the procedures described in the European Pharmacopeia; the laboratory that carried out the EPO assay was using the International BRP EPO reference standard preparation. For the HES-modified EPO A2 preparation a mean value for the specific activity of 294,600 units per mg EPO of protein was determined indicating an approximately 3-fold higher specific activity when compared to the International BRP EPO reference standard preparation that was included in the samples sent for activity assays.
In vivo activity determinations are performed in normocythemic mice by measuring the increase of reticulocytes after 4 days after animals received the foreseen dose of EPO or modified EPO forms. Assays are performed using the BRP EPO standard which is calibrated against the WHO EPO standard in the polycythemic mouse assay. EPO samples are diluted in phosphate buffered saline containing 1 mg/ml of bovine serum albumin (Sigma).
0.5 ml of the EPO test solution in Dulbecco's buffered saline (corresponding to an EPO protein equivalent of a 100, 80, 40 or 20 IU/ml of the BRP standard EPO) are infected subcutaneously per animal. Blood samples are taken after 4 days after injection and reticulocytes are stained with acridine orange; quantitation of reticulocytes is performed by flow-cytometry by counting a total of 30,000 blood cells within 5 hours after the blood sample was taken (see Ph. Eur, 2000, Erythropoietini solutio concentrata, 1316, pages 780-785) and European Pharmacopoeia (1996/2000, attachment 2002).

[1] = sample diluted with 4 volume of PBS

Substance | Calculated specific activity of EPO sample (basedon A280 nm and RP-HPLC determination) (sample as such) | Calculated specific activity of EPO sample (basedon A280 nm and RP-HPLC determination) [1]
BRP EPO standard: erythropoietin BRP reference standard of the European Pharmacopeia [reference compound] | 86,702 U/mg | 81,200 U/mg
Control EPO K2: control incubation of unmodified EPO-GT-1 with unmodified HES; Q-Sepharose fraction eluted with high salt | 121,410 U/mg | 114,100 U/mg

Reference: US20050238723A1, “Method of producing hydroxyalkyl starch derivatives” (priority 2002, published 2005)
